US12558381B2, “Development of amnion-like tissue from human pluripotent stem cells” (THE REGENTS OF THE UNIVERSITY OF MICHIGAN, priority 2016, dated 2026)

B1: NOGGIN: a protein that antagonizes BMP2/4/7 (protein, UniProt Q13253 28-232, looked up)
Noggin: QHYLHIRPAPSDNLPLVDLIEHPDPIFDPKEKDLNETLLRSLLGGHYDPGFMATSPPEDRPGGGGGAAGGAEDLAELDQLLRQRPSGAMPSEIKGLEFSEGLAQGKKQRLSKKLRRKLQMWLWSQTFCPVLYAWNDLGSRFWPRYVKVGSCFSKRSCSVPEGMVCKPSKSVHLTVLRWRCQRRGGQRCGWIPIQYPIISECKCSC

Tested on: hPSCs cultured in Gel-3D
Assay: hPSC amniogenesis assay (Gel-3D culture), requirement of BMP-SMAD signalling
Assay type: cell-based, human
Description: Implantation-Like Niche Described herein is a biomimicry approach to engineer a biomaterial-based in vitro hPSC culture system for efficient generation of early human amniotic tissue. Specifically, a biomimetic implantation-like niche for cultured hPSCs was constructed by implementing two major biophysical factors seen in the in vivo amniogenic niche: a three-dimensional (3D) extracellular matrix (ECM) that is provided by the basement membrane surrounding the epiblast during implantation 1l; and a soft tissue bed provided by the uterine wall and trophoblast to support the developing amnion (FIG. 1a,b). mTeSR1 medium and basement membrane matrix (Geltrex) was used to render the culture permissive for pluripotency maintenance. In this culture system, H9 human embryonic stem cells (hESCs) were plated as single cells at 30,000 cells cm^2 onto a thick, soft gel bed of Geltrex (with thickness 100 μm, bulk Young's modulus 900 Pa, coated on a glass coverslip), in mTeSR1 medium supplemented with the ROCK inhibitor Y2763212 (FIG. 1b). At 24 h (day 1), medium containing Y27632 was replaced by fresh mTeSR1 supplemented with 4% (v/v) Geltrex to establish a 3D implantation-like niche (referred to henceforth as the ‘Gel-3D’ condition). To assess the effect of ECM dimensionality and matrix rigidity, respectively, several modifications of this Gel-3D condition were tested (FIG. 1b). First, the Geltrex supplement was excluded from the medium, with the gel bed retained (referred to henceforth as the ‘Gel-2D’ condition). Second, the soft gel bed was replaced by a 1% Geltrex-coated glass coverslip (referred to henceforth as the ‘Glass-3D’ condition). Finally, a standard 2D culture, using a 1% Geltrex-coated glass coverslip (referred to henceforth as the ‘Glass-2D’ condition), was examined as a control that maintains hPSC self-renewal. Culture medium was replenished daily. Analyses were performed at day 5 unless otherwise noted (FIG. 1b). […]

| Molecule | hPSC-amnion development (hPSCs cultured in Gel-3D, treatment on day 2 alone or on both days 2 and 3, FIG. 5d) | development of hPSC-amnion (hPSCs in Gel-3D, treatment with NOGGIN) | amniogenic differentiation (restatement in Example 2 of the BMP-SMAD requirement for amniogenesis) |
| --- | --- | --- | --- |
| c1ccc2c(-c3cnn4cc(-c5ccc(N6CCNCC6)cc5)cnc34)ccnc2c1 [LDN193189, reference compound] | inhibited hPSC-amnion development |  |  |
| B1 |  | inhibited | inhibit amniogenic differentiation |
